These results are taken from article PMC2909360.

Assay [1] concerns the target sialostatin L (Ixodes scapularis) (UniProt Q8MVB6). The assay is described as follows: crystal structure.
The target of assay [2] is purified bovine cathepsin B (bovine).
In the next assay the target is T1, purified papain (UniProt P00784).
T1 sequence: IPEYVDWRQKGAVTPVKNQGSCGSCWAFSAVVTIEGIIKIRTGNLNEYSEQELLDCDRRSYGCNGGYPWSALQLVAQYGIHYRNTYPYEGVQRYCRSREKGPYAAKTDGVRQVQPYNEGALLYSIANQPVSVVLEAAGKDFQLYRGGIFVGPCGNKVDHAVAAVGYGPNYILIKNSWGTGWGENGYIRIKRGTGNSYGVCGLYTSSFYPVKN

Assay [3] has as its target purified bovine cathepsin C (bovine).
Assay [4] concerns the target recombinant human cathepsin L (human) (UniProt P07711).
The target of assay [5] is T2, purified human cathepsin H (human).
T2 sequence (P09668 116-335, looked up): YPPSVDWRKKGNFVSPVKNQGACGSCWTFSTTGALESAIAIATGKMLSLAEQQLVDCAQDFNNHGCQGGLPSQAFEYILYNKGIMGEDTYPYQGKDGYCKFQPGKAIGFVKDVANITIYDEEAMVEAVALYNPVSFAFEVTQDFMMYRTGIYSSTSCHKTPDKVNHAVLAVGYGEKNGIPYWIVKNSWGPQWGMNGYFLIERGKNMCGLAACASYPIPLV

For assay [6], the target named is recombinant human cathepsin S (human) (UniProt P25774).
Chain of recombinant human cathepsin S (human) (P25774 17-331): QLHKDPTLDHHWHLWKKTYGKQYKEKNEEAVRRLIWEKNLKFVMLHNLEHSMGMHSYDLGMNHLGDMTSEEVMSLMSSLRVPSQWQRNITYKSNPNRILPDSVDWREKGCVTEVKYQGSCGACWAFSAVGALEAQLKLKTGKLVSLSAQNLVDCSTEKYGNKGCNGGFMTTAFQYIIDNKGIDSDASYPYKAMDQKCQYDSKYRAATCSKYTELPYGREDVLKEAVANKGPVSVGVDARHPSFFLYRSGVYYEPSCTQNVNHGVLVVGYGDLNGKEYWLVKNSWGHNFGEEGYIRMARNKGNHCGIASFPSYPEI

Chain of purified chicken egg white cystatin (P01038 24-139): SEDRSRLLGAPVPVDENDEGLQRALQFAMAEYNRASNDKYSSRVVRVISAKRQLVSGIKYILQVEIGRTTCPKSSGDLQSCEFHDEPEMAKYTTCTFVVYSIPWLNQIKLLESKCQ
Chain of purified bovine cathepsin C (bovine) (Q3ZCJ8 25-463): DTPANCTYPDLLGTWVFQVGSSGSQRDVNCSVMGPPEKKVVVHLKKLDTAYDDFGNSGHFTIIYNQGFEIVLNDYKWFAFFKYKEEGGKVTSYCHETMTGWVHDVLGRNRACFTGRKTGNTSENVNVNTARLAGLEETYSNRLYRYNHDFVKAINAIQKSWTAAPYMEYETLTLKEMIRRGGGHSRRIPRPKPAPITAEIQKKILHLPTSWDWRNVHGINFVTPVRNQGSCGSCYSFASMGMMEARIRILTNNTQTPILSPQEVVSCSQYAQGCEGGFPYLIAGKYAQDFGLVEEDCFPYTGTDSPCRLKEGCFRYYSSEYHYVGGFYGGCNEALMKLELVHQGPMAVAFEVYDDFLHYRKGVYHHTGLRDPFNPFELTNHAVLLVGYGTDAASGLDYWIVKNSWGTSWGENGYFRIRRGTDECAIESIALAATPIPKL
Chain of recombinant human cathepsin L (human) (P07711 18-333): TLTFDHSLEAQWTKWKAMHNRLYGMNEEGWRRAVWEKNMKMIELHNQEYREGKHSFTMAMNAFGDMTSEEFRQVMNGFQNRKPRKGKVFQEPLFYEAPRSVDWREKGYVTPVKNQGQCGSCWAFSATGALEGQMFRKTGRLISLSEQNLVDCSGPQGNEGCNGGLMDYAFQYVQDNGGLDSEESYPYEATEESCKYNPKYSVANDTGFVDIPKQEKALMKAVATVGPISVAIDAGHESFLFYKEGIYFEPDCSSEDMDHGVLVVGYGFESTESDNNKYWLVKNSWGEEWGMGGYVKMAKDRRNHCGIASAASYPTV

What is called stoichiometry N is the number of molecules, sites or subunits per partner or assembly. For the substance “sialostatin L (from UniProt Q8MVB6 20-133) (natural protein)”, the stoichiometry N in assay [1] came out at 2.

As for “purified chicken egg white cystatin (from UniProt P01038 24-139) (natural protein)”, the IC50 of inhibition of enzyme activity (fluorogenic substrate) in assay [2] turned out to be 800 nM; in the assay with purified papain, 4.4 nM; in assay [3] it was 3.1 nM; in assay [4] it was 2.9 nM; in assay [5], 39 nM; in assay [6] it was 3.2 nM.
